Consider 1 substance from FireProtDB (doi:10.1016/j.bpc.2007.01.002).

The conditions of the data set: Equus caballus, Thermal, reversible: Yes.
The mark [1] stands for this setting: pH 3.8, DSC, Sodium acetate 50 mM, transition: 3.
Where [2] appears, read: pH 4.1, DSC, Sodium acetate 50 mM.
[3] abbreviates: pH 4.1, DSC, Sodium acetate 50 mM, transition: 3.
Where [4] appears, read: pH 4.5, DSC, Sodium acetate 50 mM.
[5] abbreviates: pH 5, DSC, Sodium acetate 50 mM.
The mark [6] stands for this setting: pH 5, DSC, Sodium acetate 50 mM, transition: 3.

Cytochrome c wild type, P00004, sequence (P00004 whole entry): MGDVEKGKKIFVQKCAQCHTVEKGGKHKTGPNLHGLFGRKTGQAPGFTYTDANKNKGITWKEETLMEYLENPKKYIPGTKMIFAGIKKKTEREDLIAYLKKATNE

As to Cytochrome c wild type, P00004, the Tm (in general, the temperature at which the thermal transition is half complete) (pH 2.9, IATC, KCl 20 mM) was 40 °C; the Tm under setting [1] came to 68 °C; the melting temperature (Tm) under setting [2] turned out to be 70 °C; the Tm under setting [3] is 69 °C; the Tm under setting [4] is 74.1 °C; the melting temperature (Tm) under setting [5] was 76.2 °C. Moreover, the Tm under setting [6] worked out at 73 °C. For the same substance, the “unfolding enthalpy (calorimetric)” value (pH 2.9, IATC, KCl 20 mM) is 68.8 kcal/mol; the “unfolding enthalpy (calorimetric)” value under setting [1] was determined as 33.7 kcal/mol; the “unfolding enthalpy (calorimetric)” value under setting [2] worked out at 112 kcal/mol; the “unfolding enthalpy (calorimetric)” value under setting [3] amounted to 33.7 kcal/mol; the “unfolding enthalpy (calorimetric)” value under setting [4] is 119 kcal/mol; the “unfolding enthalpy (calorimetric)” value under setting [5] worked out at 124 kcal/mol. Moreover, the “unfolding enthalpy (calorimetric)” value under setting [6] turned out to be 37.5 kcal/mol. Besides, the “heat capacity change of unfolding” value under setting [2] was determined as 1.34 kcal/mol/K, the “heat capacity change of unfolding” value under setting [4] was 1.51 kcal/mol/K and the “heat capacity change of unfolding” value under setting [5] turned out to be 1.39 kcal/mol/K.
